The results in this text go back to article PMC3034019 (The EMBO Journal, 2011).

The term Kd denotes the equilibrium constant for the complex coming apart. Read a high Kd as weaker binding. As a reminder, the kon is the second-order rate constant of association. Higher therefore signals fast association.

Assay [1] concerns the target Oregon-Green-labelled actin monomers (OG-actin) (UniProt P68135 1-377, Oregon-Green (OG) label, position not stated). In words: other fluorescence titration.
Assay [2] has the same target. Briefly: stopped-flow fluorescence kinetics.

B1: DdGAB peptide (G-actin-binding site of Dictyostelium discoideum VASP) (peptide)
peptide: GRNALLGSIENFSKGGLKKTVT
In assay [1], B1 displayed a Kd of 630 nM.

B2: hGAB peptide (G-actin-binding site of human VASP) (peptide)
peptide: GLAAAIAGAKLRKVSK
With B2, the Kd in assay [1] was found to be 10300 nM.

B3: WIP-WH2-peptide (WH2 core motif of WASP-interacting protein) (peptide)
peptide: GRNALLSDISKGKKLKKTVT
Turning to B3, in assay [1], the Kd was found to be 840 nM.

B4: EVH2 domain of Dictyostelium discoideum VASP (DdEVH2) (domain or fragment)
chain: GRNALLGSIENFSKGGLKKTVTVDKSAGVPTKTTPSANSAASNAGSEPSSGGSTPAPAPKSSGGGGGGDLMAEVMAKRAKMKAAASQPKEESSAPTPAPTPAPTPAPTPSSTSFKPPQSFSKPATKTAAANKPPSPSLSAPLPSTVANEDLQSLKEEILTEVRKEIQKAKDEILEAIRASQH
As to B4, the kon in assay [2] was determined as 5.3e+07 M⁻¹ s⁻¹.
